Source: article PMC8612984 (Journal of immunology (Baltimore, Md. : 1950), 2021)
Several values for one entry are separate records, joined by “and”; a condition that tells them apart may be missing. Identical values can stand only once.

T1: C1r-CCP2-SP, recombinant autoactivated domain truncation of human C1r (human, UniProt P00736 375-703)
T1 sequence: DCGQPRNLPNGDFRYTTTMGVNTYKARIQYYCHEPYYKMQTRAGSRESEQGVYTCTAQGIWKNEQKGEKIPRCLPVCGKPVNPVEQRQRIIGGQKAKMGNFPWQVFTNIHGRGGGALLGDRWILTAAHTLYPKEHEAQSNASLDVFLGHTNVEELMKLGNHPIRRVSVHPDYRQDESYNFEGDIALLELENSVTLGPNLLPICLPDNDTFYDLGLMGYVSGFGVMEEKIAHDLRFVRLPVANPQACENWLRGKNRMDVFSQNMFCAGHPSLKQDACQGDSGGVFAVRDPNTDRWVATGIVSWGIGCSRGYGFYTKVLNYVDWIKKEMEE

B1: BBK32-C (C-terminal domain of B. burgdorferi BBK32), wild type (domain or fragment)
chain: SNRYQSYLEGVKYNVDSAIQTITKIYNTYTLFSTKLTQMYSTRLDNFAKAKAKEEAAKFTKEDLEKNFKTLLNYIQVSVKTAANFVYINDTHAKRKLENIEAEIKTLIAKIKEQSNLYEAYKAIVTSILLMRDSLKEVQGIID
B2: BBK32-C K327A-T331A (domain or fragment, B. burgdorferi B31, UniProt O50835 206-348, looked up)
chain: SNRYQSYLEGVKYNVDSAIQTITKIYNTYTLFSTKLTQMYSTRLDNFAKAKAKEEAAKFTKEDLEKNFKTLLNYIQVSVKTAANFVYINDTHAKRKLENIEAEIKTLIAKIKEQSNLYEAYAAIVASILLMRDSLKEVQGIID
B3: BBK32-C E324A (domain or fragment, B. burgdorferi B31, UniProt O50835 206-348, looked up)
chain: SNRYQSYLEGVKYNVDSAIQTITKIYNTYTLFSTKLTQMYSTRLDNFAKAKAKEEAAKFTKEDLEKNFKTLLNYIQVSVKTAANFVYINDTHAKRKLENIEAEIKTLIAKIKEQSNLYAAYKAIVTSILLMRDSLKEVQGIID
B4: BBK32-C T331A (domain or fragment, B. burgdorferi B31, UniProt O50835 206-348, looked up)
chain: SNRYQSYLEGVKYNVDSAIQTITKIYNTYTLFSTKLTQMYSTRLDNFAKAKAKEEAAKFTKEDLEKNFKTLLNYIQVSVKTAANFVYINDTHAKRKLENIEAEIKTLIAKIKEQSNLYEAYKAIVASILLMRDSLKEVQGIID
B5: BBK32-C L236A-T239A (domain or fragment, B. burgdorferi B31, UniProt O50835 206-348, looked up)
chain: SNRYQSYLEGVKYNVDSAIQTITKIYNTYTAFSAKLTQMYSTRLDNFAKAKAKEEAAKFTKEDLEKNFKTLLNYIQVSVKTAANFVYINDTHAKRKLENIEAEIKTLIAKIKEQSNLYEAYKAIVTSILLMRDSLKEVQGIID
B6: BBK32-C Y323A-E324A (domain or fragment, B. burgdorferi B31, UniProt O50835 206-348, looked up)
chain: SNRYQSYLEGVKYNVDSAIQTITKIYNTYTLFSTKLTQMYSTRLDNFAKAKAKEEAAKFTKEDLEKNFKTLLNYIQVSVKTAANFVYINDTHAKRKLENIEAEIKTLIAKIKEQSNLAAAYKAIVTSILLMRDSLKEVQGIID
B7: BBK32-C T242A-Y245A (domain or fragment, B. burgdorferi B31, UniProt O50835 206-348, looked up)
chain: SNRYQSYLEGVKYNVDSAIQTITKIYNTYTLFSTKLAQMASTRLDNFAKAKAKEEAAKFTKEDLEKNFKTLLNYIQVSVKTAANFVYINDTHAKRKLENIEAEIKTLIAKIKEQSNLYEAYKAIVTSILLMRDSLKEVQGIID
B8: BBK32-C T239A (domain or fragment, B. burgdorferi B31, UniProt O50835 206-348, looked up)
chain: SNRYQSYLEGVKYNVDSAIQTITKIYNTYTLFSAKLTQMYSTRLDNFAKAKAKEEAAKFTKEDLEKNFKTLLNYIQVSVKTAANFVYINDTHAKRKLENIEAEIKTLIAKIKEQSNLYEAYKAIVTSILLMRDSLKEVQGIID
B9: BBK32-C Y323A (domain or fragment, B. burgdorferi B31, UniProt O50835 206-348, looked up)
chain: SNRYQSYLEGVKYNVDSAIQTITKIYNTYTLFSTKLTQMYSTRLDNFAKAKAKEEAAKFTKEDLEKNFKTLLNYIQVSVKTAANFVYINDTHAKRKLENIEAEIKTLIAKIKEQSNLAEAYKAIVTSILLMRDSLKEVQGIID
B10: BBK32-C K327A (domain or fragment, B. burgdorferi B31, UniProt O50835 206-348, looked up)
chain: SNRYQSYLEGVKYNVDSAIQTITKIYNTYTLFSTKLTQMYSTRLDNFAKAKAKEEAAKFTKEDLEKNFKTLLNYIQVSVKTAANFVYINDTHAKRKLENIEAEIKTLIAKIKEQSNLYEAYAAIVTSILLMRDSLKEVQGIID
B11: BBK32-C R248A (domain or fragment, B. burgdorferi B31, UniProt O50835 206-348, looked up)
chain: SNRYQSYLEGVKYNVDSAIQTITKIYNTYTLFSTKLTQMYSTALDNFAKAKAKEEAAKFTKEDLEKNFKTLLNYIQVSVKTAANFVYINDTHAKRKLENIEAEIKTLIAKIKEQSNLYEAYKAIVTSILLMRDSLKEVQGIID
B12: BBK32-C T242A (domain or fragment, B. burgdorferi B31, UniProt O50835 206-348, looked up)
chain: SNRYQSYLEGVKYNVDSAIQTITKIYNTYTLFSTKLAQMYSTRLDNFAKAKAKEEAAKFTKEDLEKNFKTLLNYIQVSVKTAANFVYINDTHAKRKLENIEAEIKTLIAKIKEQSNLYEAYKAIVTSILLMRDSLKEVQGIID
B13: BBK32-C L236A (domain or fragment, B. burgdorferi B31, UniProt O50835 206-348, looked up)
chain: SNRYQSYLEGVKYNVDSAIQTITKIYNTYTAFSTKLTQMYSTRLDNFAKAKAKEEAAKFTKEDLEKNFKTLLNYIQVSVKTAANFVYINDTHAKRKLENIEAEIKTLIAKIKEQSNLYEAYKAIVTSILLMRDSLKEVQGIID
B14: BBK32-C Y245A (domain or fragment, B. burgdorferi B31, UniProt O50835 206-348, looked up)
chain: SNRYQSYLEGVKYNVDSAIQTITKIYNTYTLFSTKLTQMASTRLDNFAKAKAKEEAAKFTKEDLEKNFKTLLNYIQVSVKTAANFVYINDTHAKRKLENIEAEIKTLIAKIKEQSNLYEAYKAIVTSILLMRDSLKEVQGIID
B15: BBK32-C N251A (domain or fragment, B. burgdorferi B31, UniProt O50835 206-348, looked up)
chain: SNRYQSYLEGVKYNVDSAIQTITKIYNTYTLFSTKLTQMYSTRLDAFAKAKAKEEAAKFTKEDLEKNFKTLLNYIQVSVKTAANFVYINDTHAKRKLENIEAEIKTLIAKIKEQSNLYEAYKAIVTSILLMRDSLKEVQGIID
B16: BBK32-C R337A (residues 206–354) (domain or fragment, B. burgdorferi B31, UniProt O50835 206-354, looked up)
chain: SNRYQSYLEGVKYNVDSAIQTITKIYNTYTLFSTKLTQMYSTRLDNFAKAKAKEEAAKFTKEDLEKNFKTLLNYIQVSVKTAANFVYINDTHAKRKLENIEAEIKTLIAKIKEQSNLYEAYKAIVTSILLMADSLKEVQGIIDKNGVWY

The binders below were run against T1, C1r-CCP2-SP, recombinant autoactivated … (assay: SEC-MALS + other: SEC-SAXS).

In the case of B1, the “stoichiometry N” value is reported as 1.

The binders below were run against T1, C1r-CCP2-SP, recombinant autoactivated … (assay: SPR).

With B1 the Kd was 0.45 nM and 0.78 nM.

B1 was tested, and the koff was 4.5e-05 s⁻¹ and 6.3e-05 s⁻¹.

In the case of B1, the kon is reported as 100000 M⁻¹ s⁻¹ and 81000 M⁻¹ s⁻¹.

First: B2
Second: B3
The Kd of the first is 320-fold higher: 510 ± 200 nM for the first, 1.6 ± 0.07 nM for the second.

Compared with B4, B5 is 4.1-fold lower in Kd: 0.73 ± 0.3 nM for the first, 0.18 nM for the second.

Compared with B6, B7 is 8.4-fold lower in Kd: 480 ± 51 nM for the first, 57 ± 0.1 nM for the second. The second binds more tightly here.

Compared with B8, B9 is 5.1-fold higher in Kd: 0.17 nM for the first, 0.87 ± 0.06 nM for the second. The first binds more tightly here.

Going from B10 to B11, the Kd falls from 120 ± 50 nM to 5.8 ± 0.1 nM (21-fold).

Compared with B12, B13 is 6.4-fold lower in Kd: 0.96 nM for the first, 0.15 nM for the second.

Compared with B14, B15 is 2.1-fold lower in Kd: 1.3 ± 0.01 nM for the first, 0.61 ± 0.21 nM for the second.

B16 gave a Kd of 0.78 ± 0.13 nM.

First: B2
Second: B3
The koff of the first is 76-fold higher: 0.026 s⁻¹ for the first, 0.00034 s⁻¹ for the second.

Going from B4 to B5, the koff falls from 8.2e-05 s⁻¹ to 4.3e-05 s⁻¹ (1.9-fold).

Compared with B6, B7 is 3.8-fold lower in koff: 0.046 s⁻¹ for the first, 0.012 s⁻¹ for the second.

Compared with B8, B9 is 3.6-fold higher in koff: 4.4e-05 s⁻¹ for the first, 0.00016 s⁻¹ for the second.

Going from B10 to B11, the koff falls from 0.0075 s⁻¹ to 0.0013 s⁻¹ (5.8-fold).

First: B12
Second: B13
The koff of the first is 2.8-fold higher: 9.9e-05 s⁻¹ for the first, 3.5e-05 s⁻¹ for the second.

Compared with B14, B15 is 3.2-fold lower in koff: 0.00035 s⁻¹ for the first, 0.00011 s⁻¹ for the second.

B16 gave a koff of 8.8e-05 s⁻¹.

Compared with B2, B3 is 5.4-fold higher in kon: 37000 M⁻¹ s⁻¹ for the first, 200000 M⁻¹ s⁻¹ for the second.

First: B4
Second: B5
The kon of the first is 1.7-fold lower: 140000 M⁻¹ s⁻¹ for the first, 240000 M⁻¹ s⁻¹ for the second.

Compared with B6, B7 is 2.1-fold higher in kon: 100000 M⁻¹ s⁻¹ for the first, 210000 M⁻¹ s⁻¹ for the second.

B8 and B9 are within 1.5-fold of each other in kon: 260000 M⁻¹ s⁻¹ for the first, 180000 M⁻¹ s⁻¹ for the second.

Going from B10 to B11, the kon rises from 97000 M⁻¹ s⁻¹ to 220000 M⁻¹ s⁻¹ (2.3-fold).

First: B12
Second: B13
The kon of the first is 2.3-fold lower: 100000 M⁻¹ s⁻¹ for the first, 230000 M⁻¹ s⁻¹ for the second.

Going from B14 to B15, the kon falls from 280000 M⁻¹ s⁻¹ to 180000 M⁻¹ s⁻¹ (1.6-fold).

B16 was tested, and the kon was 110000 M⁻¹ s⁻¹.
